The target in data set [1] is T1, FBF-2 RBD (Caenorhabditis elegans, UniProt Q09312).
T1 construct: The FBF-2 RBD protein (residue 164-575) was purified as described previously; His6-SUMO (N, cleaved yes); made in house; host or cells: E. coli BL21-CodonPlus (DE3)-RIL (host inferred: b50 says the procedure was otherwise the same as for RBD + CT)
T1 sequence (Q09312 whole entry, looked up): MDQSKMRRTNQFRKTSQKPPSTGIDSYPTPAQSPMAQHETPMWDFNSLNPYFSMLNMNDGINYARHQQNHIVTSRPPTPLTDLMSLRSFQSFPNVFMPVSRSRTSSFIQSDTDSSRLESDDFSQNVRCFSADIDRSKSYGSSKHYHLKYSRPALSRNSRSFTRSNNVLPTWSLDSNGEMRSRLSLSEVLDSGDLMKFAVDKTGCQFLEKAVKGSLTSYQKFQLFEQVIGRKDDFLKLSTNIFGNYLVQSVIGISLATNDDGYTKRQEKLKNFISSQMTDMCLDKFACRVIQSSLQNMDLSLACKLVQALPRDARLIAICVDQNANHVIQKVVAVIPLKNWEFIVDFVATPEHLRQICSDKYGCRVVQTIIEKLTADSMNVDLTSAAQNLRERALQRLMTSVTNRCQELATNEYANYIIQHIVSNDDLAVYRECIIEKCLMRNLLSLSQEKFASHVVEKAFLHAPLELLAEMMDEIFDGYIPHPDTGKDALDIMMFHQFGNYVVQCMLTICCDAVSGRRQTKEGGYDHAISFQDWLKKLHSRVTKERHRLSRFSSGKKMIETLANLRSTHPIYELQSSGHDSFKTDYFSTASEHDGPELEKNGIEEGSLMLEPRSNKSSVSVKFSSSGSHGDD
To be noted: reported previously, cited from earlier work. The source says: Given that the core residues of three distinct PIMs—FBF-2 CT, LST-1 A, and LST-1 B—all bind to the same site of FBF-2, we hypothesized that the intramolecular FBF-2 CT binding could compete with LST-1 A and LST-1 B binding. To assess that idea, we investigated how the CT affects the protein interaction affinities of the FBF-2 RBD to LST-1 A and LST-1 B, using isothermal titration calorimetry (ITC, Supplementary Table 3). No RNA was included in these experiments. We first measured the binding affinity of an isolated CT peptide and the FBF-2 RBD (no CT), by titrating the peptide, FBF-2^601–632, ... || Fig. 2 The FBF-2 CT competes with partner proteins for binding to the RBD. Representative isothermal titration calorimetry thermograms (top, differential power [DP] vs time) and corresponding titration curve-fitting graphs (bottom) are shown for interaction between a FBF-2 RBD and FBF-2 CT, c FBF-2 RBD + CT and LST-1 A, d FBF-2 RBD + CT and LST-1 B, e FBF-2 RBD and FBF-2 CT L610A, f FBF-2 RBD + CT L610A and LST-1 A, and g FBF-2 RBD + CT L610A and LST-1 B. Data points on the curve-fitting graphs are shown as open circles. b Previously reported mean Kd from two independent replicates with simila ... || We next compared the protein interaction affinities of LST-1 A or LST-1 B with either FBF-2 RBD + CT or RBD alone (Fig. 2c–g, Supplementary Table 3). For these experiments, we titrated the LST-1 peptide into an ITC cell containing either RBD + CT or RBD.

The target in data set [2] is T2, FBF-2 RBD (Caenorhabditis elegans, UniProt Q09312 164-575).
T2 sequence: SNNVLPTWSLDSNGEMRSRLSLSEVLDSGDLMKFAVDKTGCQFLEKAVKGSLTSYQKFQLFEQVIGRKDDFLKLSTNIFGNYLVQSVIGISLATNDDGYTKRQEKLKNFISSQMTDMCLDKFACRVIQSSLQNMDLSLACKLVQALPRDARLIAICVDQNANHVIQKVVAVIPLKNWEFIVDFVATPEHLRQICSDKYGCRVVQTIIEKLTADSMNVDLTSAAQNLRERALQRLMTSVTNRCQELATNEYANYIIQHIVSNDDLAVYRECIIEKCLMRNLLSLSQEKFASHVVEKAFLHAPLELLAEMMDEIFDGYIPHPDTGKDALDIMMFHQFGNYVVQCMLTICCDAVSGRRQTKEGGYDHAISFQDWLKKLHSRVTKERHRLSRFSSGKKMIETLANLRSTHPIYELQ
The experiment in a line: EMSA; no LST-1; EMSA: FBF-2 in 20 mM HEPES pH 7.4, 150 mM NaCl, 0.5 mM TCEP mixed 1:1 with 5 nM final RNA in 10 mM HEPES pH 7.4, 0.01% Tween 20, 0.1 mg/ml BSA, 0.1 mg/ml yeast. The note with it: protein: recombinant; tags: none (His6-SUMO removed with TEV protease); label: 3'-Cy5.

In data set [3] the target is T3, FBF-2 RBD+CT;LST-1 A peptide (Caenorhabditis elegans;Caenorhabditis …, UniProt Q09312;P91820 164-632;19-50, |).
T3 sequence 1: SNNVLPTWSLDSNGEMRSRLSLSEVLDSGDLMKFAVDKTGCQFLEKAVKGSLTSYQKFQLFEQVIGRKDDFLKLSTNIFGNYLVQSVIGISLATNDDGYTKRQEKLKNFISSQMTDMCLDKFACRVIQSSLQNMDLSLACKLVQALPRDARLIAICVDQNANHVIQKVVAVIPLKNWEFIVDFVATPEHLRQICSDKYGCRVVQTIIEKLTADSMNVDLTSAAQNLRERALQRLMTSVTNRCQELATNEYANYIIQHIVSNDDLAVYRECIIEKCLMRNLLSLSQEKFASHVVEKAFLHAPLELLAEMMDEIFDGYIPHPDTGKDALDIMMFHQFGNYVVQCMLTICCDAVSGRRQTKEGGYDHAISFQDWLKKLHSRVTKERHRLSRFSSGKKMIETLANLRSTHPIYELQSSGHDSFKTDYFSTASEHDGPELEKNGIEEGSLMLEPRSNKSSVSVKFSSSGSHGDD
T3 sequence 2: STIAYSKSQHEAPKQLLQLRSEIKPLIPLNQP
Description: EMSA; 150 uM LST-1 A; EMSA: FBF-2 in 20 mM HEPES pH 7.4, 150 mM NaCl, 0.5 mM TCEP mixed 1:1 with 5 nM final RNA in 10 mM HEPES pH 7.4, 0.01% Tween 20, 0.1 mg/ml BSA, 0.1 mg/ml yeast. To be noted: protein: recombinant;recombinant; tags: none (His6-SUMO removed with Ulp1);none (His6-SUMO removed with Ulp1); copies: 1;1; label: 3'-Cy5.

Like-named read-outs stand apart in the source and are kept apart here.

For orientation: Kd means the concentration at which binding is half-saturated.

Regarding “LST-1 B: LST-1 B peptide, residues 67–98, expressed in E. coli (SSSPQQRSGLRSQKLHLTYIEKNKRVRAMIPQ; left off: His6-SUMO, N-terminal, cleaved)”, in the data set with FBF-2 RBD [1] (replicate 1), the “-T∆S” value is recorded as 32.2 kJ/mol, the “∆G” value is given as -41.2 kJ/mol and the “∆H” value was -73.4 kJ/mol. In the data set with FBF-2 RBD [1] (replicate 2), the “-T∆S” value is given as 30.0 kJ/mol, the “∆G” value is listed as -41.3 kJ/mol and the “∆H” value is -71.3 kJ/mol.

B1: gld-1 FBEa RNA (EMSA) (ssRNA)
RNA: AUCAUGUGCCAUAC
As to B1, the Kd was determined as 0.07 ± 0.023 µM in the data set with FBF-2 RBD [2] and 0.114 ± 0.01 µM in data set [3].

The record behind these values is paper PMC10641069, “Intra- and inter-molecular regulation by intrinsically-disordered regions governs PUF protein RNA binding” (Nature Communications, 2023).
